Results: the DeepSol protein solubility set

Test: soluble on expression in E. coli; label from the status in PepcDB or PDB records

Row | Sequence | soluble on expression in E. coli
1 | MSLDKPVIQIHTDNSSLIFRVADNGRLYQSYLGKKLNHEADISHLPQGTEAYITHGMEDYFEPAIHILHNDGNPSLLLKYVSHETKAVSQGVNETIITLGDDKYPVTVKLHYVTYPAEDIIKTYTEISHKEKKPVVLHQYASSMLHLNRAKYYLTEFSGDWAHEANISDQPLEFGKKVLDTKLGARANMFTPPFFQLSLDQLATENCGEVLVGTLGWTGNFRFTFEVDNKNELRIISGINPYASEYYLPAGVVFRTPDFYFTYSANGKGKASRNFHDWARRYQLKDGDETRMTLLNNWEATYFDFNEEKLIGLIGDAAGLGVDMFLLDDGWFANKYPRSSDHQGLGDWDETADKLPNGIGRLVEEATKKGIKFGLWIEPEMVNPKSELYEKHKDWVIHLPNRDEYYFRNQLVLDLSNPKVQDFVFGVVDDLMTKYPGIAFFKWDCNSPITNIYSSYLKEKQSHLYIDYVRGLYNVLERIKTKYPDLPMMLCSGGSGRIDYETLRYFTEFWPSDNTDPIERLFIQWGYSQLFPAKTLCAHVTTWNHDASIKFRTDVAMMGKLGFDIKLSDLNDNEKKFCRDAVTNYNHLKPVVLEGDMYRLVSPYSGNHTSTQYVGKDKKGAVVFAFDIYSRYGEKLLPVRLQGLDAGRQYRVKEINLMPGTNSEGHHHHHH | not soluble
2 | GKITFFEDRSFQGRCYECSSDCPNLQTYFSRCNSVRVDSGCWMLYERPNYQGHQYFLRRGEYPDYQQWMGFSDSIRSCRLIPHAGSHRMRLYEKEDHKGVMMELSEDCSCIQDRFHLSEVRSLQVLEGCWVLYEMPNYRGRQYLLRPQEYRRFQDWGSVDAKAGSLRRVVDLY | soluble
3 | MRDRVRWRVLSLPPLAQWREVMAALEVGPEAALAYWHRGFRRKEDLDPPLALLPLKGLREAAALLEEALRQGKRIRVHGDYDADGLTGTAILVRGLAALGADVHPFIPHRLEEGYGVLMERVPEHLEASDLFLTVDCGITNHAELRELLENGVEVIVTDHHTPGKTPPPGLVVHPALTPDLKEKPTGAGVAFLLLWALHERLGLPPPLEYADLAAVGTIADVAPLWGWNRALVKEGLARIPASSWVGLRLLAEAVGYTGKAVEVAFRIAPRINAASRLGEAEKALRLLLTDDAAEAQALVGELHRLNARRQTLEEAMLRKLLPQADPEAKAIVLLDPEGHPGVMGIVASRILEATLRPVFLVAQGKGTVRSLAPISAVEALRSAEDLLLRYGGHKEAAGFAMDEALFPAFKARVEAYAARFPDPVREVALLDLLPEPGLLPQVFRELALLEPYGEGNPEPLFLLFGAPEEARRLGEGRHLAFRLKGVRVLAWKQGDLALPPEVEVAGLLSENAWNGHLAYEVQAVDLRKPEALEGGIAPFAYPLPLLEALARARLGEGVYVPEDNPEGLDYAWKAGFRLLPPEEAGLWLGLPPRPVLGRRVEVALGREARARLSAPPVLHTPEARLKALVHRRLLFAYERRHPGLFSEALLAYWEVNRVQEPAGSP | soluble
4 | MGAIKVEIKSGALLISPSEFKERYLPTLQDMPVLAFVRNIEAPKSWYSYLISNIEDQKSSIFPTNLPRILEISRRYFSSVKNGIVVIDALEYLTIYNGFEAIAKFLATLRDFAILDNGTVIIITEKKAWKDREWALLTSLLGKLEHHHHHH | not soluble
5 | MSLERPLCISYIRFSKATQAEGSSLERQLQLSRTYAEEHGLVLDDKHSYQDLGKSAFTSEHVKEGEFGVFLEFVKQGRVPKGSVLLVESLDRLSRESVLTAFKQFQEILDAGIKIVTLSDKMEYTKEGFEANIGNIFISLGIMARANEESLRKSERICAAWRLKRKNLHNIKLTANCPGWLELTPDKKDFILKEDRVEIVKQIFELSLSGLGVKAISTILNKQKIEPFRSKIGWYQTTVRKILSNSAVIGEFQPHVFGSKHSKPVPDGELIKDYFPPIIDTDTFYAVQAKLKNGAHREGHHHHHH | soluble
6 | MGSDKIHHHHHHMPHSLHPLFQAIATAPTEQTLRLTVMDNISEYFGVQRWGIYLLDTNNNLASVEAKGVSDTFIEQYQRFGKAVDPVLKYVLENHAPAHEELVLPEGTWKQSELYQRCCSTHDHEHIMTGPLVGQGQLIGTINFARIGHIPAFNHLELASLGAVCTHFSARLAELRKPHSVSGQISNRLTSREIQIANLVAKGLTNAEIGAELWITHNSVKQALKRIFRKLEVSARTEMVAKLRDII | not soluble
7 | MEIPVIEPLFTKVTEDIPGAAGPVFDKNGDFYIVAPYVEVNGKPAGEILRIDLKTGKKTVICKPEVNGYGGIPIGCQCDRDANQLFVADMRLGLLVVQTDGTFEEIAKKDSEGRRMQGCAYCAFDYEGNLWITAPAGEVAPADFTISLQEKFGSIYCFTTDGQMIQVDTAFQAPAGIAVRHMNDGRPYQLIVAEQPTKKLWSYDIKGPAKIENKKVWGHIPGTHKGGAAGMDFDEDNNLLVANWGSSHIEVFGPDGGQPKMRIRCPFEKPSALHFKPQTKTIFVTEHENNAVWKFEWQRNGKKQYCETLKFGIFGSLEHHHHHH | soluble
8 | MLLKGLYKVEFETPRRKAVGVIFASDGRLHGGSSAFAYIGAYEQQGQTIQGTITARRHTSDPAIQSVFGVDEVRVDFHGSTIGDYAQVEGMAAEAPSLGFKALLTRISQ | not soluble
9 | STFEELNGDYSIERMDSVIKALEEVLRSALPQGCITVGVYEAAKSLNVDPDNVVLCILATDDDDVKDVALQIHFTLIQAFCCENDINILRVNNTRRLANILGGAGMHGSEQMDLHCILVTVPHASTWKNPALGKVNRFCRESRCMDQWVPIINLPER | soluble
10 | MARLNITFSPQAFEDYKYFQQNDKKMVKKINELLKSIDRNGALEGIGKPEKLKSNLTGYYSRRINHEHRLVYTVDDNHIKIASCKYHY | not soluble
11 | MTSKTSESGTGTQSTIVQLRNLPDLTEISHLEIDAPVVEILKKTVLFQLNSLNICISNFALDELVNLVTVQMDGMFRNLHNLTLLQRRSQASQADLKLLLREFNLDAPSLYQQFQASEFIKSKHSTEYEKLMSWSSLAALPHNEEDEEDELNNIEEQQNEINVLLPPSNPLEKQIPSWLPNFPPDHTYKFTPEFNHPITDLKTIKKEIVKESQESEKALLNLNKSLSHISSASNTPQPPGLDDEDAIEQQLEIWGNALEERKPTITEKSFNENNIEQYAKYRVELARERVTKFEVNQLKRTKNPFLKISETLYLPESPHQSHKTIQKTIELQFRKSMTLFMHNLPKVQKLKKEKIRMAKEERAKSLKRRQEELISQRTKREQDEGHDLELLLNNEHARDAADDTTTPNALNNSTIVINTNAEDEDDDINLFGILGSSEDENEMSSMPAENLVAESEPPTMTAQDTTNTTPVAHNTTNIDATTSHSPHSTPNENAPTSPPADIATDHDITM | soluble
12 | MGSDKIHHHHHHAAIPISVTKGPDGIKIHCLNSANNPLLGSPAYKNVRIVELEKVPFFQRINNIRKLEMNDDYLFVQTSEKLYTYTLNGELMAEIGRKGEREDDYSELSTFYIDNKKKQITIIDGVQNKLINYNFWGNYMFTDTISEGAFKWCYQTLLINNNQLLNYHGMSMDNTEPYSLFDLTKKEVIKRYFSYQPITLGNYVYPFSWHPMTRADKDIDVIMPLCDTVYTYSAASSSFQPKYIIEMTQKMAPKNKIRKNTPSYSGDLLKLDQQGYFTGFDGIYETDTKILLQYMYGITLGYFLFDKYTKTGSFYLYSQNDKGKTFPFNVIVHSYKNEFVAFGKGKELRSLTHIKDKKVREKIESLGDNSACLIFYELE | not soluble
13 | MRNFANYHVDVRRHTSGVVKTICEQCLPTRHNKRDRSLRVNIDTGHCHCYHCGADFYVPDDAEERAKAERQAARKRRAASAVPQHFHRPVFDASKTTLSEATERWLVETRCIPQSVIAGLRITEQEEFMSQSGTKERCVCFNYFEDGKLVNTKFRSGAKNFKMVQGAELIPYNIDSVLGQDTCIIHEGELDAASSLATGFKSVISVPAGANANLSWLDRFMESHFENLKDIIIAVDTDSAGLKLRDELVNRLGAERCRVAVYGPGCKDANEHLVKYGIDSLRIAIEQAEEIPLEGIFTAADLHEDLRALFDNGFGPGAETGWEEMDKICTYERRRLVIVTGIPGAGKSEWLDELVLRLCMRHQWKIAFFSPENNPIVYHLRKLIEKLTGRRFQNGCGMTEGLLLRSEEFLAENVCHIALKGSATPERVLAKARELVLRRGCRIFVFDPVNRFEHTPAPGQSETQYLSNFLNLFTEFATQYNCLVILVAHPRKMNRNPVTNHTPRPDMYDVNGSADFFNKADYGLVVERDKEVGVTRVYVEKVKFKHLGTGGVATFVYDPVSGRYLPCEESQDPSVPPEQRVRNTVNDSSCWLPEKELFE | not soluble
14 | MANADLDKQPDSVSSVLKVFGILQALGEEREIGITELSQRVMMSKSTVYRFLQTMKTLGYVAQEGESEKYSLTLKLFELGARALQNVDLIRSADIQMRELSRLTKETIHLGALDEDSIVYIHKIDSMYNLRMYSRIGRRNPLYSTAIGKVLLAWRDRDEVKQILEGVEYKRSTERTITSTEALLPVLDQVREQGYGEDNEEQEEGLRCIAVPVFDRFGVVIAGLSISFPTLRFSEERLQEYVAMLHTAARKISAQMGYHDYPF | soluble
15 | MDESIDDVQETRTIAIPLKDSHEDEVIEINCSELPDGEEVLQILEAEEAKLSYWIEVALEYYRQDRVDLFMMILESAGSRAGLEYEGVKQDQMRALDILAAYWMTQGYREKAKDKKSDFFSKATVLFNTADKIAMYEWSHLTVRAWFYLFERDKSTNKYELADQQFNYVVKTNPKNVLPLIGKAVIAFNKKDYKTAIYYFRKAIRQCRHTIADLRVGIGHCFAKMGMMDKAKTAFERAMEIEPYNVSAMCGLGIILLNTYDHDSLKHAVSLFGRSYNLQTDHPVALIHLANHFFFKKEIERAWTLAWHAATYNDCDSIKAEAFYQMGRCRHAQGQFDGAYKYYYQARQANNGEHTLAHYGLGQMYIHRNEIEEAIKCFDTVHKRLPNNTDTMKILGSLYAHVQLNDPAQTAEARQKGRDVLGKYLAVENDDYEACIDLAQLLEATDPKRSLELYENAIDLLVTNESIQPQPEMLNNVGALYMSMKQYEKAEHHFKRAKERLEEQLNTDEGSLLLERRSAPEKSHLLTIRYNLALCLEHLCRTVEAEQMYKDIVKECPGYIDGYLRLGCITRDRHQVYESSLWLKQGVQFDQASPIVWTLIGNLHFAKNEWMPAQKKFEFILSKIFNNKIPDPYSLVALGNVWFEQLLNPSRKKEDEKKYIDRALQMYQKALKLQPKNMYAANGIGCVLAYKRNWNDARDVFSQVRESTSEFYDVWLNIAHVCMEREQWMAAVQMYSSAMKKFRKENDSTLQHYLAKAYYRANMLNEAKEALECAMLDQLDNTQLKFNYAIVLKKSAKEVLRGHKMTSEQVTAAIDDLKFADKIFQYISKNDDRQSSHTGMRISRTICAEEAKNCKDLLTQAKHKLAAAQTQDEEERRLMEKQEKEKIALQNKMIEEARAKEEAEKQKLEDMKNLRLSFIEMTKDVLRLPEIVEEKRRGGGGRKRRNDDGDEFVNDSSDAGNYDGEEGGEDGERRERRKKDKAAKKASRKKRERRDSGGPDSNRRDEKKRKRKEERDRKLQEKLSAKQSAKIKSRAFLSSSESSDDDKPKPAADSSDDEVDPRPPVDEFDSPTRTDSDSDRETTTKKKKKKAVVDSDEGSVSGSGSGSDNDDKPIIGGSDDDDDDKPAGGNSRDSDGSDAPKKKVIESDSD | not soluble
16 | TITLTENKRKSMEKLSVDGVISALAFDQRGALKRMMAQHQTKEPTVEQIEELKSLVSEELTPFASSILLDPEYGLPASRVRSEEAGLLLAYEKTGYDATTTSRLPDCLDVWSAKRIKEAGAEAVKFLLYYDIDGDQDVNEQKKAYIERIGSECRAEDIPFYLEILTYDEKIADNASPEFAKVKAHKVNEAMKVFSKERFGVDVLKVEVPVNMKFVEGFADGEVLFTKEEAAQAFRDQEASTDLPYIYLSAGVSAKLFQDTLVFAAESGAKFNGVLCGRATWAGSVKVYIEEGPQAAREWLRTEGFKNIDELNKVLDKTASPWTEKM | soluble
